Data published in publication PMC11237401.

Columns and labels:
MurG = MurG (UniProt Q2FYL5); experiment: BACTH (bacterial adenylate cyclase-based two-hybrid); conditions: T18 fusion: Gp11 or mutant; T25 fusion: MurG; parent: est. 5300; read off a plot
DivIC = experiment: as above; conditions: T18 fusion: Gp11 or mutant; T25 fusion: DivIC; parent: est. 5500; read off a plot

Sequence of UniProt Q2FYL5 (Q2FYL5 whole entry, the tested form may be a part): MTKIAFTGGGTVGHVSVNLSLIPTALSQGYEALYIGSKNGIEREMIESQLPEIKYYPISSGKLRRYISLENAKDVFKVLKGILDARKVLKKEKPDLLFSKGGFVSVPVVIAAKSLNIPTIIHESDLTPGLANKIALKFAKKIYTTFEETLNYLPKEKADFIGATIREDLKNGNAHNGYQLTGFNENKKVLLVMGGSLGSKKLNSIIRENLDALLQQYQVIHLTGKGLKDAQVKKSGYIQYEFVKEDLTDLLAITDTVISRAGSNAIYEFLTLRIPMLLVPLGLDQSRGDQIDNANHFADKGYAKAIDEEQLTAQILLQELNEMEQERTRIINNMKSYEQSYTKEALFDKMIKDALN

Row | Substance | response (MurG) | response (DivIC)
1 | Gp11 A38E | 150 Miller Units | 1900 Miller Units
2 | Gp11 G36R | 100 Miller Units | 100 Miller Units
3 | Gp11 S33L | 1600 Miller Units | 3200 Miller Units
